According to publication PMC10314698 (2023):

B1: soluble BCMA (B-cell maturation antigen) (receptor)
chain: MLQMAGQCSQNEYFDSLLHACIPCQLRCSSNTPPLTCQRYCNASVTNSVKGTNA

How the values were obtained:
Test in all cases: SPR
[1] = target: bb2121 (C11D5.3)
[2] = target: B1
[3] = target: B1

Kd [1] [nM]	koff [1] [s⁻¹]	koff [2] [s⁻¹]	Kd [3] [nM]	Binder
0.328	0.00155	–	–	B1
–	–	0.00393	3.7	APRIL (a proliferating ligand), IgG2a Fc conjugated binder (Fc fusion) SVLHLVPINATSKDDSDVTEVMWQPALRRGRGLQAQGYGVRIQDAGVYLLYSQVLFQDVTFTMGQVVSREGQGRQETLFRCIRSMPSHPDRAYNSCYSAGVFHLHQGDILSVIIPRARAKLNLSPHGTFLGFVKL
